Tested on: intracellular proteome of ENR+CD and ENR organoids
Experiment: LC-MS/MS TMT proteomics of ENR+CD versus ENR organoids
Type: cell-based, C57BL/6 mice
Settings: for Average logFC / M1-1 Log2 Median Normalized / M1-2 Log2 Median Normalized / M2-1 Log2 Median Normalized / M2-2 Log2 Median Normalized: protein abundance, ENR+CD versus ENR organoids; for Average logFC: aggregate of the four sample pairs; for M1-1 Log2 Median Normalized: replicate M1-1; for M1-1 Log2 Median Normalized / M1-2 Log2 Median Normalized / M2-1 Log2 Median Normalized / M2-2 Log2 Median Normalized: log2 ratio; for M1-2 Log2 Median Normalized: replicate M1-2; for M2-1 Log2 Median Normalized: replicate M2-1; for M2-2 Log2 Median Normalized: replicate M2-2; for change: up = enriched in ENR+CD, down = enriched in ENR, FDR<0.05 and log fold change cut-off

Molecule | Average logFC | M1-1 Log2 Median Normalized | M1-2 Log2 Median Normalized | M2-1 Log2 Median Normalized | M2-2 Log2 Median Normalized | change
P19467 (protein, UniProt P19467 1-573, looked up, full-length) MKGFLLLSLSLLLVTVGSSSQASSTTSSSGGTSPPTTVQSQSPGSSSQASTTTSSSGGASPPTTVQSQSPGSSSQASTTTSSSGGASPPTTVQSQSPGSSSQASTTTSSSGGASPPTTVQSQSPGSSSQASTTTSSSGGASPPTTVQSQSPGSSSQASTTTSSSGGASPPTTVQSQSPGSSSQVSTTTSSSGGASPPTTVQSQSPGSSSQPGPTQPSGGASSSTVPSGGSTGPSDLCNPNPCKGTASCVKLHSKHFCLCLEGYYYNSSLSSCVKGTTFPGDISMSVSETANLEDENSVGYQELYNSVTDFFETTFNKTDYGQTVIIKVSTAPSRSARSAMRDATKDVSVSVVNIFGADTKETEKSVSSAIETAIKTSGNVKDYVSINLCDHYGCVGNDSSKCQDILQCTCKPGLDRLNPQVPFCVAVTCSQPCNAEEKEQCLKMDNGVMDCVCMPGYQRANGNRKCEECPFGYSGMNCKDQFQLILTIVGTIAGALILILLIAFIVSARSKNKKKDGEEQRLIEDDFHNLRLRQTGFSNLGADNSIFPKVRTGVPSQTPNPYANQRSMPRPDY | 1.199 | 1.437 | 0.978 | 1.3955 | 0.984 | up
P23881 (protein, UniProt P23881 1-347, looked up, full-length) MGLEEELLRIAKKLEKMVSRKKTEGALDLLKKLNSCQMSIQLLQTTRIGVAVNGVRKHCSDKEVVSLAKVLIKNWKRLLDSPRTTKGEREEREKAKKEKGLGCSDWKPEAGLSPPRKKGGGEPKTRRDSVDSRSSTTSSPKRPSLERSNSSKSKVETPTTPSSPSTPTFAPAVCLLAPCYLTGDSVRDKCVEMLSAALKAEDNFKDYGVNCDKLASEIEDHIYQELKSTDMKYRNRVRSRISNLKDPRNPGLRRNVLSGAISPELIAKMTAEEMASDELRELRNAMTQEAIREHQMAKTGGTTTDLLRCSKCKKKNCTYNQVQTRSADEPMTTFVLCNECGNRWKFC | −1.33 | −1.331 | −1.172 | −1.7775 | −1.12 | down
P27600 (protein, UniProt P27600 1-379, looked up, full-length) MSGVVRTLSRCLLPAEAGARERRAGAARDAEREARRRSRDIDALLARERRAVRRLVKILLLGAGESGKSTFLKQMRIIHGREFDQKALLEFRDTIFDNILKGSRVLVDARDKLGIPWQHSENEKHGMFLMAFENKAGLPVEPATFQLYVPALSALWRDSGIREAFSRRSEFQLGESVKYFLDNLDRIGQLNYFPSKQDILLARKATKGIVEHDFVIKKIPFKMVDVGGQRSQRQKWFQCFDGITSILFMVSSSEYDQVLMEDRRTNRLVESMNIFETIVNNKLFFNVSIILFLNKMDLLVEKVKSVSIKKHFPDFKGDPHRLEDVQRYLVQCFDRKRRNRSKPLFHHFTTAIDTENIRFVFHAVKDTILQENLKDIMLQ | −2.195 | −1.957 | −1.145 | −2.8495 | −2.827 | down
P30681 (protein, UniProt P30681 1-210, looked up, full-length) MGKGDPNKPRGKMSSYAFFVQTCREEHKKKHPDSSVNFAEFSKKCSERWKTMSAKEKSKFEDLAKSDKARYDREMKNYVPPKGDKKGKKKDPNAPKRPPSAFFLFCSENRPKIKIEHPGLSIGDTAKKLGEMWSEQSAKDKQPYEQKAAKLKEKYEKDIAAYRAKGKSEAGKKGPGRPTGSKKKNEPEDEEEEEEEEEEEDDEEEEEDEE | −1.315 | −1.316 | −1.094 | −1.2715 | −1.62 | down
P31362 (protein, UniProt P31362 1-431, looked up, full-length) MVNLEPMHTEIKMSGDVADSTDTRSTFGQVEPGNDRNGLDFNRQIKTEDLGDSLQQTLSHRPCHLSQGPTMMPGNQMSGDMASLHPLQQLVLVPGHLQSVSQFLLSQTPPGQQGLQPNLLSFPQQQSTLLLPQTGPGLASQAVGRPGLSGSSLEPHLDAPQHLPGPKHLPGPGGNDEPTDLEELEKFAKTFKQRRIKLGFTQGDVGLAMGKLYGNDFSQTTISRFEALNLSFKNMCKLKPLLEKWLNDAESSPSDPSASTPSSYPTLSEVFGRKRKKRTSIETNIRLTLEKRFQDNPKPSSEEISMIAEQLSMEKEVVRVWFCNRRQKEKRINCPVATPVKPPIYNSRLVSPSGSLGPLSVPPVHSTMPGTVTSSCSPGNNSRPSSPGSGLHASSPTASQNNSKAAMNSSSSSSFNSSGSWYRWNHPTYLH | −1.897 | −1.567 | −1.082 | −2.3845 | −2.554 | down
P40338 (protein, UniProt P40338 1-181, looked up, full-length) MPRKAASPEEAAGEPGPEEMEAGRPRPVLRSVNSREPSQVIFCNRSPRVVLPLWLNFDGEPQPYPILPPGTGRRIHSYRGHLWLFRDAGTHDGLLVNQTELFVPSLNVDGQPIFANITLPVYTLKERCLQVVRSLVKPENYRRLDIVRSLYEDLEDYPSVRKDIQRLSQEHLESQHLEEEP | −1.533 | −1.026 | −1.492 | −1.5695 | −2.043 | down
P43137 (protein, UniProt P43137 1-165, looked up, full-length) MARNAYFILLSCLIVLSPSQGQEAEEDLPSARISCPEGSNAYSSYCYYFTEDRLTWADADLFCQNMNSGYLVSVLSQAEGNFVASLIKESGTTDANVWTGLHDPKRNRRWHWSSGSLFLYKSWATGSPNSSNRGYCVSLTSNTGYKKWKDDNCDAQYSFVCKFKG | −2.852 | −2.092 | −3.168 | −4.1035 | −2.045 | down
P43883 (protein, UniProt P43883 1-425, looked up, full-length) MAAAVVDPQQSVVMRVANLPLVSSTYDLVSSAYVSTKDQYPYLRSVCEMAEKGVKTVTSAAMTSALPIIQKLEPQIAVANTYACKGLDRMEERLPILNQPTSEIVASARGAVTGAKDVVTTTMAGAKDSVASTVSGVVDKTKGAVTGSVERTKSVVNGSINTVLGMVQFMNSGVDNAITKSELLVDQYFPLTQEELEMEAKKVEGFDMVQKPSNYERLESLSTKLCSRAYHQALSRVKEAKQKSQETISQLHSTVHLIEFARKNMHSANQKIQGAQDKLYVSWVEWKRSIGYDDTDESHCVEHIESRTLAIARNLTQQLQTTCQTVLVNAQGLPQNIQDQAKHLGVMAGDIYSVFRNAASFKEVSDGVLTSSKGQLQKMKESLDEVMDYFVNNTPLNWLVGPFYPQSTEVNKASLKVQQSEVKAQ | 1.236 | 1.328 | 1.122 | 0.9365 | 1.559 | up
P48036 (protein, UniProt P48036 1-319, looked up, full-length) MATRGTVTDFPGFDGRADAEVLRKAMKGLGTDEDSILNLLTSRSNAQRQEIAQEFKTLFGRDLVDDLKSELTGKFEKLIVAMMKPSRLYDAYELKHALKGAGTDEKVLTEIIASRTPEELSAIKQVYEEEYGSNLEDDVVGDTSGYYQRMLVVLLQANRDPDTAIDDAQVELDAQALFQAGELKWGTDEEKFITIFGTRSVSHLRRVFDKYMTISGFQIEETIDRETSGNLEQLLLAVVKSIRSIPAYLAETLYYAMKGAGTDDHTLIRVVVSRSEIDLFNIRKEFRKNFATSLYSMIKGDTSGDYKKALLLLCGGEDD | 1.143 | 1.196 | 1.332 | 1.1055 | 0.94 | up
P48281 (protein, UniProt P48281 1-422, looked up, full-length) MEAMAASTSLPDPGDFDRNVPRICGVCGDRATGFHFNAMTCEGCKGFFRRSMKRKALFTCPFNGDCRITKDNRRHCQACRLKRCVDIGMMKEFILTDEEVQRKREMIMKRKEEEALKDSLRPKLSEEQQHIIAILLDAHHKTYDPTYADFRDFRPPIRADVSTGSYSPRPTLSFSGDSSSNSDLYTPSLDMMEPASFSTMDLNEEGSDDPSVTLDLSPLSMLPHLADLVSYSIQKVIGFAKMIPGFRDLTSDDQIVLLKSSAIEVIMLRSNQSFTLDDMSWDCGSQDYKYDITDVSRAGHTLELIEPLIKFQVGLKKLNLHEEEHVLLMAICIVSPDRPGVQDAKLVEAIQDRLSNTLQTYIRCRHPPPGSHQLYAKMIQKLADLRSLNEEHSKQYRSLSFQPENSMKLTPLVLEVFGNEIS | −1.442 | −1.589 | −1.441 | −1.0795 | −1.499 | down
P48756 (protein, UniProt P48756 1-144, looked up, full-length) MVALKTCSLLLVLLFLAVGLGEKEEVEFRSHAKFAGPRPRGPRYAEGTFISDYSIAMDKIRQQDFVNWLLAQRGKKSDWKHNITQREARALVLAGQSQGKEDKEAQESSLPKSLSDDDVLRDLLIQELLAWMVDQTELCRLRSQ | 1.212 | 1.21 | 0.504 | 1.2845 | 1.769 | up

From patent publication US11994512B2, “Single-cell genomic methods to generate ex vivo cell systems that recapitulate in vivo biology with improved fidelity” (Massachusetts Institute of Technology, priority 2018, dated 2024)
